Assay results taken from paper PMC5038948, “The Role of Neutrophil Proteins on the Amyloid Beta-RAGE Axis” (PLoS ONE, 2016).
Where two headings read alike, the source gives them in different places.

Columns and labels:
Aβ1–42 binding to RAGE = target: T1, Aβ1–42 binding to RAGE (Homo sapiens, UniProt Q15109); test: ELISA: competitive inhibition of Aβ1–42 binding to RAGE by neutrophil proteins added simultaneously
T1 construct: purchased R&D Systems Inc. (RAGE Fc chimera); Bachem (Aβ1–42)
Method: (§1) The plates were washed three times with PBS containing 0.05% tween (PBST), and then blocked in PBST containing 3% bovine serum albumin (BSA). Indicated proteins were added to the plate in 50 μL PBST containing 0.1% BSA and incubated at 37°C for 70 mins. Wells were washed four times with PBST, and then incubated with 50 μL of goat anti-RAGE primary antibody (0.5 μg/ml) or mouse anti-APP/Aβ antibody (0.5 μg/ml-1 μg/ml) for 1 h. After washing the wells four times with PBST, 50 μL of rabbit anti-goat at 0.16 μg/ml or donkey anti-mouse at 0.04–0.08 μg/ml secondary antibodies were added for 1 h at room temperature.
(§2) All statistics were performed using Graph Pad Prism 6 (GraphPad Software, La Jolla, CA). Data are represented as mean± SEM of results. […] Two-way analysis of variances (ANOVAs) were performed with Dunnett’s multiple comparison tests. […] Kruskal-Wallis tests with Dunn’s multiple comparison tests were used to analyze binding by Far-Western dot blotting (see figure legends 3 and 6 for details on multiple comparison tests). […] To obtain dissociation constants (Kd), half-maximal inhibitory concentrations (IC50), and maximum absorbance values, BSA was subtracted as background and values were fitted to a curve of nonlinear regression.

Aβ1–42 [1] = target: T2, Aβ1–42 (Homo sapiens, UniProt P05067); test: ELISA: binding of Aβ1–42 to coated neutrophil proteins; details: for Log binding (Aβ1–42): 0.5 μg/well coated protein, with protease inhibitor cocktail, log OD 492 nm, mean ± SEM, n = 3
T2 construct: Amyloid beta 1–42 (Aβ1–42), a known RAGE ligand; purchased Bachem (Torrance, CA)
Method: as §1, §2

Aβ1–42 [2] = target: T2, Aβ1–42; test: Far-Western dot blot: binding of Aβ1–42 to spotted neutrophil proteins; details: Aβ1–42 […] (56 nM) with protease inhibitor cocktail; 1 μg spotted protein
Method: After spotting, membranes were rinsed with ultrapure water, and Ponceau S (Sigma Aldrich) was used to stain for spotted proteins. Ponceau S was rinsed off with ultrapure water, and membrane blots were blocked for 2 h at room temperature in PBST containing 3% BSA. […] Blots were washed three times with PBST for 10 min, and then incubated with either rabbit anti-RAGE primary antibody (0.8μg/ml) or mouse anti-APP/Aβ (0.25μg/ml) for 2 h at room temperature. Blots were washed three times with PBST for 10 min, and then incubated with donkey anti-rabbit or donkey anti-mouse secondary antibodies at 0.04μg/ml for 45 min at room temperature. Blots were washed three times with PBST. Enhanced chemiluminescent or SuperSignal West femto maximum sensitivity substrates (Pierce) were used to develop blots. Mean dot densities were quantified and normalized to ponceau S dot densities using Image J software (National Institutes of Health (NIH), Bethesda, MD).
Blots were incubated with rocking overnight at 4°C.
All statistics were performed using Graph Pad Prism 6 (GraphPad Software, La Jolla, CA). Data are represented as mean± SEM of results. […] To obtain dissociation constants (Kd), half-maximal inhibitory concentrations (IC50), and maximum absorbance values, BSA was subtracted as background and values were fitted to a curve of nonlinear regression.

RAGE Fc chimera [3] = target: T3, RAGE Fc chimera (Homo sapiens, UniProt Q15109); test: ELISA: binding of RAGE to coated neutrophil proteins; parameters: purchased R&D Systems Inc. (Minneapolis, MN); details: for Log binding (RAGE): wells coated 0.5 μg/well protein, log-transformed OD 492 nm, mean ± SEM
Method: as §1
Goat anti-RAGE primary antibody at 0.5 μg/ml was used to detect bound RAGE.
as §2

RAGE Fc chimera [4] = target: T3, RAGE Fc chimera; test: Far-Western dot blot: binding of RAGE to spotted proteins ± GM-0111; parameters: purchased R&D Systems Inc. (Minneapolis, MN); details: 1 μg spotted protein (0.5 μg Aβ1–42)
Method: as §2

RAGE Fc chimera [5] = target: T3, RAGE Fc chimera; test: ELISA: Aβ1–42 binding to RAGE after pre-incubation of Aβ1–42 with neutrophil proteins; parameters: purchased R&D Systems Inc. (RAGE Fc chimera); Bachem (Aβ1–42); details: for Kd: read-out: KD value for Aβ1–42 binding to RAGE
Method: as §1
In this set of experiments, the maxisorp plates were coated with RAGE Fc chimera (0.5 μg/well, 83.3 nM) overnight at 4°C.
as §2

T3 sequence (Q15109 with tags, fused parts or gaps limits assumed): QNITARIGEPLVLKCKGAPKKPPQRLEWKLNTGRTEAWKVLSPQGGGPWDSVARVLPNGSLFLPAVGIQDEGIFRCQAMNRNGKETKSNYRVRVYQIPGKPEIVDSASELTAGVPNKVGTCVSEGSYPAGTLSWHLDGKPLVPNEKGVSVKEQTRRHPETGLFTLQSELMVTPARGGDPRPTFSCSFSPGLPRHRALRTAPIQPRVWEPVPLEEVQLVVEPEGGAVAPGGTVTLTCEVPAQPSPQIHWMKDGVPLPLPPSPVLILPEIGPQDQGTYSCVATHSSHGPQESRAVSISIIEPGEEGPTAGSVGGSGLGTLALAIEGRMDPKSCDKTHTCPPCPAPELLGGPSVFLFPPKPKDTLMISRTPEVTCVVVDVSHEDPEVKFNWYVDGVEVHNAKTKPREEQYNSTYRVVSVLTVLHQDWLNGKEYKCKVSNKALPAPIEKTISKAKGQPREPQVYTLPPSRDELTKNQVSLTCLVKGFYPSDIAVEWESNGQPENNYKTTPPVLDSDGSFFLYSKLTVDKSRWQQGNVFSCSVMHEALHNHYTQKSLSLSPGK
T1 sequence (Q15109 with tags, fused parts or gaps limits assumed): as above

B1: cationic antimicrobial protein of 37kDa (protein)
chain: IVGGRKARPRQFPFLASIQNQGRHFCGGALIHARFVMTAASCFQSQNPGVSTVVLGAYDLRRRERQSRQTFSISSMSENGYDPQQNLNDLMLLQLDREANLTSSVTILPLPLQNATVEAGTRCQVAGWGSQRSGGRLSRFPRFVNVTVTPEDQCRPNNVCTGVLTRRGGICNGDGGTPLVCEGLAHGVASFSLGPCGRGPDFFTRVALFRDWIDGVLNNPGPGPA
notes: neutrophil protein purified from human neutrophils (Athens Research & Technology)
maximal inhibition of Aβ1–42 binding to RAGE in the absence of protease inhibitors (Aβ1–42 binding to RAGE; no protease inhibitors, highest dose of protein): complete
inhibition of Aβ1–42 binding to RAGE in the presence of protease inhibitors (Aβ1–42 binding to RAGE; with protease inhibitor cocktail, Aβ1–42 11 nM): only partial
Log binding (Aβ1–42) (Aβ1–42 [1]; Aβ1–42 0 nM (background)): • -0.907±0.139 • p = 0.005
Log binding (Aβ1–42) (Aβ1–42 [1]; Aβ1–42 3.47 nM): • -0.556±0.047 • p<0.0001
Log binding (Aβ1–42) (Aβ1–42 [1]; Aβ1–42 13.89 nM): • -0.138±0.047 • p<0.0001
Log binding (Aβ1–42) (Aβ1–42 [1]; Aβ1–42 27.78 nM): • 0.137±0.043 • p<0.0001
Log binding (Aβ1–42) (Aβ1–42 [1]; Aβ1–42 55.56 nM): • 0.304±0.039 • p<0.0001
maximum absorbance value for Aβ1–42 binding (Aβ1–42 [1]; ELISA with protease inhibitors, BSA subtracted, nonlinear regression fit): 2.86
binding of Aβ1–42 (far-Western dot blot) (Aβ1–42 [2]): strong binding
maximum absorbance value for RAGE binding (RAGE Fc chimera [3]; ELISA, BSA subtracted as background, nonlinear regression fit): 2.49
Log binding (RAGE) (RAGE Fc chimera [3]; RAGE 0 nM (background)): -0.623
Log binding (RAGE) (RAGE Fc chimera [3]; RAGE 0.83 nM): • 0.112±0.041 • p<0.0001
Log binding (RAGE) (RAGE Fc chimera [3]; RAGE 1.67 nM): • 0.228±0.043 • p<0.0001
Log binding (RAGE) (RAGE Fc chimera [3]; RAGE 3.33 nM): • 0.325±0.064 • p<0.0001
binding of RAGE (far-Western dot blot) (RAGE Fc chimera [4]): strong binding
maximum absorbance (MA) for Aβ1–42 binding to RAGE (RAGE Fc chimera [5]; Aβ1–42 pre-incubated with CAP37 500 ng/ml): 3.05
maximum absorbance (MA) for Aβ1–42 binding to RAGE (RAGE Fc chimera [5]; Aβ1–42 pre-incubated with CAP37 1 μg/ml): 3.70
maximum absorbance value for Aβ1–42 binding to RAGE (RAGE Fc chimera [5]; Aβ1–42 pre-incubated with CAP37 2 μg/ml): 3.27 OD 492 nm
Kd (RAGE Fc chimera [5]; Aβ1–42 pre-incubated overnight 4°C with CAP37 500 ng/ml (21 nM)): 0.0138 µM
Kd (RAGE Fc chimera [5]; Aβ1–42 pre-incubated overnight 4°C with CAP37 1 μg/ml (42 nM)): 0.0593 µM
Kd (RAGE Fc chimera [5]; Aβ1–42 pre-incubated overnight 4°C with CAP37 2 μg/ml (83 nM)): 0.149 µM
